Experimental data taken from patent US20130022590, “Compositions Comprising Zinc Finger Domains and Uses Therefor” (published 2013).

Legend:
ZRANB2-F2 (untagged) = molecular target: T1, ZRANB2-F2 (untagged) (Homo sapiens, UniProt O95218 O95218:65-95); experiment: structure; crystal structure 1.4 A; W79 stacks between G2 and G3
T1 chain: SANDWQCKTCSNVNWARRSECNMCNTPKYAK

[1] = molecular target: EWS RanBP2-type zinc finger (Homo sapiens, UniProt Q01844 Q01844:518-549); experiment: FP; value in figure only; settings: tags: expressed as GST fusion
Procedure: (§1) Fluorescence Anisotropy titrations e.g., as shown in FIGS. 1D-F, 8 and 35, were carried out using standard protocols. In brief, 5′-Fluorescein-labeled RNA oligonucleotides were quantified by A₂₆₀, correcting for fluorescein absorbance by using A₄₉₃. For single-site experiments, the sequence […] (SEQ ID NO: 28), or single base mutants thereof, was used. For double-site experiments, two AGGUAA sites were separated by different length sequences as indicated, and the total oligonucleotide lengths were kept constant by the symmetrical addition of adenines to each end. The anisotropy titrations were performed with a starting RNA concentration of 50 nM in a buffer comprising either 10 mM Tris (pH 8.0), 50 mM KCl, 5 mM MgCl₂, 0.05 mg/mL heparin, and 1 mM DTT (for GST fusion constructs) or 10 mM Mops (pH 7.3), 50 mM NaCl, 0.05 mg/mL heparin, and 1 mM DTT (for ZRANB2-F12). RNasin (Promega) was also added to the protein solution to a concentration of 2 units/μL. Protein was titrated into this starting solution and anisotropy values measured on a Cary Eclipse fluorescence spectrophotometer fitted with manual polarizer and long-pass filters set to 475 and 515 nm for excitation and emission, respectively. […] Association constants were determined by nonlinear least squares regression analysis using a 1:1 binding model.

ZRANB2-F2 R82N = molecular target: T2, ZRANB2-F2 R82N (Homo sapiens, UniProt O95218 O95218:65-95, R82N); experiment: FP; also about 2-fold increase versus WT F2; settings: label: 5'-fluorescein
T2 chain: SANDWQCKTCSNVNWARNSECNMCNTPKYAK
Procedure: The anisotropy titrations were performed with a starting RNA concentration of 50 nM in a buffer comprising either 10 mM Tris (pH 8.0), 50 mM KCl, 5 mM MgCl₂, 0.05 mg/mL heparin, and 1 mM DTT (for GST fusion constructs) or 10 mM Mops (pH 7.3), 50 mM NaCl, 0.05 mg/mL heparin, and 1 mM DTT (for ZRANB2-F12). RNasin (Promega) was also added to the protein solution to a concentration of 2 units/μL. Protein was titrated into this starting solution and anisotropy values measured on a Cary Eclipse fluorescence spectrophotometer fitted with manual polarizer and long-pass filters set to 475 and 515 nm for excitation and emission, respectively. Excitation and emission wavelengths were set at 495 and 520 nm, respectively (10-nm slits) and the temperature was maintained at 25° C. by using a block temperature controller. Association constants were determined by nonlinear least squares regression analysis using a 1:1 binding model. […]

ZRANB2-F12 delta45-64 [2] = molecular target: T3, ZRANB2-F12 delta45-64 (Homo sapiens, UniProt O95218 O95218:1-44+65-95, del45-64); experiment: FP; settings: label: 5'-fluorescein
ZRANB2-F12 delta47-61 = ZRANB2-F12 delta47-61 (Homo sapiens, UniProt O95218 O95218:1-46+62-95, del47-61); experiment: FP; about 30-51e6 stated; order comparable to wild-type F12; settings: label: 5'-fluorescein
Procedure: as §1, with “The anisotropy titrations were performed with a starting RNA concentration of 50 nM in a buffer comprising either 10 mM Tris (pH 8.0), 50 mM KCl, 5 mM MgCl₂, 0.05 mg/mL heparin, and 1 mM DTT (for GST fusion constructs) or 10 mM Mops (pH 7.3), 50 mM NaCl, 0.05 mg/mL heparin, and 1 mM DTT (for ZRANB2-F12). RNasin (Promega) was also added to the protein solution to a concentration of 2 units/μL.” left out
(§2) The inventors have employed deletion mutagenesis to thereby identify a minimal inter-finger linker region of ZRANB2 required for specific ssRNA-binding. […] The deletion constructs were then tested for an ability to bind the ssRNA substrate 5′-GGUNXGGU-3′ comprising a repeat of the GGU core sequence using fluorescence anisotropy titration.

ZRANB2-F12 delta45-64 [3] = molecular target: T3, ZRANB2-F12 delta45-64; experiment: FP; lower affinity than F122; settings: label: 5'-fluorescein
Procedure: as §1, with “model. […]” for “model.”

ZRANB2-F12 [4] = molecular target: T4, ZRANB2-F12 (Homo sapiens, UniProt O95218 O95218:1-95); experiment: FP; range stated for deletion construct and comparable wild type; settings: tags: GST removed for FA, gel shift and SPR; label: 5'-fluorescein
Procedure: as §1, with “The anisotropy titrations were performed with a starting RNA concentration of 50 nM in a buffer comprising either 10 mM Tris (pH 8.0), 50 mM KCl, 5 mM MgCl₂, 0.05 mg/mL heparin, and 1 mM DTT (for GST fusion constructs) or 10 mM Mops (pH 7.3), 50 mM NaCl, 0.05 mg/mL heparin, and 1 mM DTT (for ZRANB2-F12). RNasin (Promega) was also added to the protein solution to a concentration of 2 units/μL.” left out
as §2

EKLF-F123 = EKLF-F123 (UniProt P46099 P46099:275-357); experiment: FP; higher affinity than poly(C) or AGGUAA; also HSQC titration; settings: tags: zinc fingers 1-3
ZRANB2-F12 [5] = molecular target: T4, ZRANB2-F12; experiment: FP; affinity increases with spacing; value in figure only; settings: tags: GST removed for FA, gel shift and SPR; label: 5'-fluorescein
Procedure: as §1, with “The anisotropy titrations were performed with a starting RNA concentration of 50 nM in a buffer comprising either 10 mM Tris (pH 8.0), 50 mM KCl, 5 mM MgCl₂, 0.05 mg/mL heparin, and 1 mM DTT (for GST fusion constructs) or 10 mM Mops (pH 7.3), 50 mM NaCl, 0.05 mg/mL heparin, and 1 mM DTT (for ZRANB2-F12). RNasin (Promega) was also added to the protein solution to a concentration of 2 units/μL.” left out
The importance of the spacing between AGGUAA motifs was assessed by measuring binding of F12 to double sites that were separated by −1 to 8 nt (where −1 denotes the sequence […] SEQ ID NO: 33; FIG. 1E, lanes 5-10).

Sequence of EKLF-F123 (P46099 275-357, one chain of several): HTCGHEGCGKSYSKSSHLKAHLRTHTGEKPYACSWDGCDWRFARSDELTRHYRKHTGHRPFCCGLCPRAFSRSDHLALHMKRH
Sequence of EWS RanBP2-type zinc finger (Q01844 518-549, one chain of several): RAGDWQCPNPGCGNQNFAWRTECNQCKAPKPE

AGGUAA (ssRNA) [AGGUAA hexamer]
binding result (ZRANB2-F2 (untagged)): binds | binding result [1]: binds

AGUUAA (ssRNA) [AGUUAA (3U)]
binding signal (ZRANB2-F2 R82N): ~2 fold higher than AGGUAA

AAGGUGGUGGUAA (ssRNA) [GGUGGUGGU 13-mer]
Ka (ZRANB2-F12 delta45-64 [2]): ~2.5e+07 M⁻¹

AAAGGUGGUAAAA (ssRNA) [GGUGGU 13-mer]
binding result (ZRANB2-F12 delta47-61): binds | binding result (ZRANB2-F12 delta45-64 [3]): binds | binding result (ZRANB2-F12 [4]): binds

UUUUUUUUU (ssRNA) [U9]
binding result (EKLF-F123): binds

AGGUAAGGUAA (ssRNA) [double site spacing -1]
binding result (ZRANB2-F12 [5]): binds
